T1: CD276 on HEK293T cells (UniProt Q5ZPR3 29-534, limits assumed)
T1 construct: whole, on cells
T1 sequence (looked up): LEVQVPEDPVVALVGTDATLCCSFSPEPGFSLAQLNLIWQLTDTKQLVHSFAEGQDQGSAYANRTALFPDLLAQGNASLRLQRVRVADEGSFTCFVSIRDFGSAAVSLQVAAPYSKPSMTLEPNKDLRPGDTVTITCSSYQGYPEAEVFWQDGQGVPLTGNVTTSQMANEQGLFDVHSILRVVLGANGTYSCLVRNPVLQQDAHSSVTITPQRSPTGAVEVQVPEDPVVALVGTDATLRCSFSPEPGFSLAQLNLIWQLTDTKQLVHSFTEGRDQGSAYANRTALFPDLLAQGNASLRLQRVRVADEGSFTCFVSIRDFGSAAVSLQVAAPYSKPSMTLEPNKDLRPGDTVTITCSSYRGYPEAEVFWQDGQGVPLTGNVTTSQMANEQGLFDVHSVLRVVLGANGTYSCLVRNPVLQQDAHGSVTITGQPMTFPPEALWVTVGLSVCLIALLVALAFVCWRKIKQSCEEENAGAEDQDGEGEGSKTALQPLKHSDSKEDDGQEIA


What was measured:
[1] = target: T2, CD38 on Daudi cells (UniProt P28907 1-300, limits assumed); assay: titration binding FACS on Daudi cells
T2 construct: whole, on cells
Protocol: (§1) Subsequently the EC50 of antibodies samples was determined by titration binding FACS on Daudi cells (for CD38 binding evaluation), on THP-1 cells (for CD33 binding evaluation), on A-431 cells (for EGFR binding evaluation), on MKN-45 cells (for CEACAMS binding evaluation) and on HEK293T (for CD276 binding evaluation). Jurkat E6-1 or HEK293T cell lines were used as negative control, as applicable.

[2] = target: T3, bio-huCD38 (human (hu), UniProt P28907 43-300, biotinylated (bio-), site not stated); assay: SPR, antigen immobilized, antibody as analyte 25-1.6 nM; at the instrument's limit
[3] = target: T3, bio-huCD38; assay: SPR, antigen immobilized, antibody as analyte 25-1.6 nM
Protocol: (§2) SPR analysis was performed on a Biocore 8K+, using a CFJB0944 CM5 sensor chip for immobilization and a SPR running buffer 1×HBS-EP+pH 7.4 (Cytiva, cat no. BR100669) according to the manufacturer's instructions.
(§3) In the second part of this example, antigen was immobilized on the chip and antibody dissolved in the SPR running buffer flowed over the chip.

[4] = target: T3, bio-huCD38; assay: SPR, antigen immobilized, antibody as analyte 25-1.6 nM; estimated from ka and the limit kd, indicative
Protocol: as §2, §3

[5] = target: T3, bio-huCD38; assay: SPR, antibody captured on chip, antigen as analyte 200-6.25 nM
Protocol: as §2
In the first part of this example the antibody was immobilized on the chip and the antigen dissolved in the SPR running buffer flowed over the chip.

[6] = target: T4, EGFR on A-431 cells (UniProt P00533 25-1210, limits assumed); assay: titration binding FACS on A-431 cells
T4 construct: whole, on cells
Protocol: as §1

[7] = target: bio-huEGFR (human (hu), UniProt P00533 25-645, biotinylated (bio-), site not stated); assay: SPR, antigen immobilized, antibody as analyte 25-1.6 nM
Protocol: as §2, §3

[8] = target: target expressed in cell line for the HER2/CD276 trivalent molecules (HER2 and/or CD276; cell line not named); assay: titration binding FACS, target cell line not named
[9] = target: T1, CD276 on HEK293T cells; assay: FACS titration on HEK293T cells (the line used for CD276 binding evaluation), GeoMFI (RL1-H); control cell line Jurkat E6-1
Protocol: as §1

Binder	EC50 [1] [nM]	koff [2] [s⁻¹]	kon [3] [M⁻¹ s⁻¹]	Kd [4] [nM]	Kd [5] [nM]	koff [5] [s⁻¹]	kon [5] [M⁻¹ s⁻¹]	EC50 [8] [nM]	binding result [9]	other results
CD38 (bivalent)-DOTA(Fab)-p53 (bispecific antibody, Two identical CD38 VHHs, one on each Fab chain; has the p53 tetramerization domain; also called YM00004; molecule 3) light: DVQLQESGGGLVQAGGSLRLSCTGSGRTFRNYPMAWFRQAPGKEREFVAGITWVGASTLYADFAKGRFTISRDNAKNTVYLQMNSLKPEDTAVYSCAAGRGIVAGRIPAEYADWGQGTQVTVSSGGGGSGGGGSGGGGSGGGGGSQAVVIQESALTTPPGETVTLTCGSSTGAVTASNYANWVQEKPDHLFTGLIGGHNNRPPGVPARFSGSLIGDKAALTIAGTQTEDEAIYFCALWYSDHWVIGGGTRLTVLGQPKANPTVTLFPPSSEELQANKATLVCLISDFYPGAVTVAWKADGSPVKAGVETTKPSKQSNNKYAASSYLSLTPEQWKSHRSYSCQVTHEGSTVEKTVAPTECS heavy: DVQLQESGGGLVQAGGSLRLSCTGSGRTFRNYPMAWFRQAPGKEREFVAGITWVGASTLYADFAKGRFTISRDNAKNTVYLQMNSLKPEDTAVYSCAAGRGIVAGRIPAEYADWGQGTQVTVSSGGGGSGGGGSGGGGSGGGGGSHVKLQESGPGLVQPSQSLSLTCTVSGFSLTDYGVHWVRQSPGKGLEWLGVIWSGGGTAYNTALISRLNIYRDNSKNQVFLEMNSLQAEDTAMYYCARRGSYPYNYFDAWGRGTTVTVSSASTKGPSVFPLAPSSKSTSGGTAALGCLVKDYFPEPVTVSWNSGALTSGVHTFPAVLQSSGLYSLSSVVTVPSSSLGTQTYICNVNHKPSNTKVDKKVEPKSCGGGGSGGGGSKPLDGEYFTLQIRGRERFEMFRELNEALELKDAQAGKEPGGS	3.45	< 1e-07	121000	< 0.000826	2.77	0.00012	43200	–	–	–
EGFR-DOTA(fab)-p53 (bispecific antibody, The assays name bio-huEGFR and A-431 cells; also called YM00010; molecule 9) light: EVQLVESGGGLVQPGGSLRLSCVASGFTFADYAMSWVRQAPGKGLQWVSSISYNGDTTYYAESMKDRFTISRDNAKNTLYLQMNSLKSEDTAVYYCASSGSYYPGHFESWGQGTQVTVSSGGGGSGGGGSGGGGSGGGGGSQAVVIQESALTTPPGETVTLTCGSSTGAVTASNYANWVQEKPDHLFTGLIGGHNNRPPGVPARFSGSLIGDKAALTIAGTQTEDEAIYFCALWYSDHWVIGGGTRLTVLGQPKANPTVTLFPPSSEELQANKATLVCLISDFYPGAVTVAWKADGSPVKAGVETTKPSKQSNNKYAASSYLSLTPEQWKSHRSYSCQVTHEGSTVEKTVAPTECS heavy: HVKLQESGPGLVQPSQSLSLTCTVSGFSLTDYGVHWVRQSPGKGLEWLGVIWSGGGTAYNTALISRLNIYRDNSKNQVFLEMNSLQAEDTAMYYCARRGSYPYNYFDAWGRGTTVTVSSASTKGPSVFPLAPSSKSTSGGTAALGCLVKDYFPEPVTVSWNSGALTSGVHTFPAVLQSSGLYSLSSVVTVPSSSLGTQTYICNVNHKPSNTKVDKKVEPKSCGGGGSGGGGSKPLDGEYFTLQIRGRERFEMFRELNEALELKDAQAGKEPGGS	–	–	–	–	–	–	–	–	–	EC50 [6]: 51.5 nM; Kd [7]: 2.12 nM; koff [7]: 0.000985 s⁻¹; kon [7]: 464000 M⁻¹ s⁻¹
CD38(Bivalent)-DOTA(fab)-p53_C-Term (bispecific antibody, Two identical C-terminal CD38 VHHs; has the p53 tetramerization domain; also called YM00015; molecule 14) light: QAVVIQESALTTPPGETVTLTCGSSTGAVTASNYANWVQEKPDHLFTGLIGGHNNRPPGVPARFSGSLIGDKAALTIAGTQTEDEAIYFCALWYSDHWVIGGGTRLTVLGQPKANPTVTLFPPSSEELQANKATLVCLISDFYPGAVTVAWKADGSPVKAGVETTKPSKQSNNKYAASSYLSLTPEQWKSHRSYSCQVTHEGSTVEKTVAPTECSGGGGSGGGGSGGGGSGGGGGSDVQLQESGGGLVQAGGSLRLSCTGSGRTFRNYPMAWFRQAPGKEREFVAGITWVGASTLYADFAKGRFTISRDNAKNTVYLQMNSLKPEDTAVYSCAAGRGIVAGRIPAEYADWGQGTQVTVSS heavy: HVKLQESGPGLVQPSQSLSLTCTVSGFSLTDYGVHWVRQSPGKGLEWLGVIWSGGGTAYNTALISRLNIYRDNSKNQVFLEMNSLQAEDTAMYYCARRGSYPYNYFDAWGRGTTVTVSSASTKGPSVFPLAPSSKSTSGGTAALGCLVKDYFPEPVTVSWNSGALTSGVHTFPAVLQSSGLYSLSSVVTVPSSSLGTQTYICNVNHKPSNTKVDKKVEPKSCGGGGSGGGGSGGGGSGGGGGSDVQLQESGGGLVQAGGSLRLSCTGSGRTFRNYPMAWFRQAPGKEREFVAGITWVGASTLYADFAKGRFTISRDNAKNTVYLQMNSLKPEDTAVYSCAAGRGIVAGRIPAEYADWGQGTQVTVSSGGGGSGGGGSKPLDGEYFTLQIRGRERFEMFRELNEALELKDAQAGKEPGGS	3.24	< 1e-07	187000	< 0.000535	1.89	6.41e-05	33800	–	–	–

Now from value to binder, other results behind:

EC50 [1] [nM]	koff [2] [s⁻¹]	kon [3] [M⁻¹ s⁻¹]	Kd [4] [nM]	Kd [5] [nM]	koff [5] [s⁻¹]	kon [5] [M⁻¹ s⁻¹]	EC50 [8] [nM]	binding result [9]	Binder	other results
–	–	–	–	–	–	–	12.4	binds	HER2/CD276_23F11-DOTA(humanized fab)-p53 (bispecific antibody, Three specificities (HER2 VHH, CD276 VHH, humanized DOTA Fab); also called YM00053; molecule 17) light: QVQLQESGGGSVQAGGSLKLTCAASGYIFNSCGMGWYRQSPGRERELVSRISGDGDTWHKESVKGRFTISQDNVKKTLYLQMNSLKPEDTAVYFCAVCYNLETYWGQGTQVTVSSGGGSGGGSGGGSGGGGSQAVVTQEPSLTVSPGGTVTLTCGSSTGAVTASNYANWVQQKPGQAPRGLIGGHNNRPPGVPARFSGSLLGGKAALTLLGAQPEDEAEYYCALWYSDHWVIGGGTKLTVLGQPKANPTVTLFPPSSEELQANKATLVCLISDFYPGAVTVAWKADGSPVKAGVETTKPSKQSNNKYAASSYLSLTPEQWKSHRSYSCQVTHEGSTVEKTVAPTECS heavy: QVQLVESGGGLVQAGGSLRLSCAASGRTFSRQVMGWFRQAPGKERAFVAAISGSGGTTMYAGSVKGRFTISKDNAKNMVYLQMNSLKPEDTAVYYCNTVTPYDSWGQGTQVTVSSGGGGSGGGGSGGGGSGGGGGSHVQLVESGGGLVQPGGSLRLSCAASGFSLTDYGVHWVRQAPGKGLEWLGVIWSGGGTAYNTALISRFTISRDNSKNTLYLQMNSLRAEDTAVYYCARRGSYPYNYFDAWGQGTLVTVSSASTKGPSVFPLAPSSKSTSGGTAALGCLVKDYFPEPVTVSWNSGALTSGVHTFPAVLQSSGLYSLSSVVTVPSSSLGTQTYICNVNHKPSNTKVDKKVEPKSCGGGGSGGGGSKPLDGEYFTLQIRGRERFEMFRELNEALELKDAQAGKEPGGSGGAP	–
–	–	–	–	–	–	–	90.2	binds	HER2/CD276_23A04-DOTA(humanized fab)-p53 (bispecific antibody, Three specificities (HER2 VHH, CD276 VHH, humanized DOTA Fab); also called YM00052; molecule 18) light: QVQLQESGGGSVQAGGSLKLTCAASGYIFNSCGMGWYRQSPGRERELVSRISGDGDTWHKESVKGRFTISQDNVKKTLYLQMNSLKPEDTAVYFCAVCYNLETYWGQGTQVTVSSGGGSGGGSGGGSGGGGSQAVVTQEPSLTVSPGGTVTLTCGSSTGAVTASNYANWVQQKPGQAPRGLIGGHNNRPPGVPARFSGSLLGGKAALTLLGAQPEDEAEYYCALWYSDHWVIGGGTKLTVLGQPKANPTVTLFPPSSEELQANKATLVCLISDFYPGAVTVAWKADGSPVKAGVETTKPSKQSNNKYAASSYLSLTPEQWKSHRSYSCQVTHEGSTVEKTVAPTECS heavy: QVQLVESGGGLVQSGDSLRLSCGWSGRTFSGYAMGWFRKAPGKDYEFVAAISVSETKTRYADSIRGRFTISRDNAKNTVYLQMNSLKPEDTAVYYCAASRSGVVGGREPTRYNYWGQGTQVTVSSGGGGSGGGGSGGGGSGGGGGSHVQLVESGGGLVQPGGSLRLSCAASGFSLTDYGVHWVRQAPGKGLEWLGVIWSGGGTAYNTALISRFTISRDNSKNTLYLQMNSLRAEDTAVYYCARRGSYPYNYFDAWGQGTLVTVSSASTKGPSVFPLAPSSKSTSGGTAALGCLVKDYFPEPVTVSWNSGALTSGVHTFPAVLQSSGLYSLSSVVTVPSSSLGTQTYICNVNHKPSNTKVDKKVEPKSCGGGGSGGGGSKPLDGEYFTLQIRGRERFEMFRELNEALELKDAQAGKEPGGSGGAP	–
